Measurements taken from patent US20230357348A1 (AstraZeneca / MedImmune, published 2023).
Values belong to the binder of their own block, whether it stands above or below them. Starred links: 1 amine or outer side, 2 acyl side, 3 side chain; linkers in the order of their positions; H or OH if unused. Non-standard residues stand in square brackets, D forms with d. Groups on a side chain read outwards from the residue. No end group written: not given here. *: point of attachment. C18 diacid = O=C(O)CCCCCCCCCCCCCCCCC(=O)*; γGlu = O=C(O)[C@H](CCC(=O)[*:2])N[*:1]; αMeF = C[C@](N)(Cc1ccccc1)C(=O)O; AEEA = NCCOCCOCC(=O)O; Aib = CC(C)(N)C(=O)O

Key:
Assay in all cases: cell-based or functional assay
[1] = target: human GLP-1 receptor (hGLP-1R) (human, UniProt P43220 24-463)
[2] = target: human glucagon receptor (hGCGR) (human, UniProt P47871 26-477)
[3] = target: human GLP-1 receptor (hGLP-1R) (human, UniProt P43220 24-463); remark: listed apart in the source

Sequence of human glucagon receptor (hGCGR) (P47871 26-477): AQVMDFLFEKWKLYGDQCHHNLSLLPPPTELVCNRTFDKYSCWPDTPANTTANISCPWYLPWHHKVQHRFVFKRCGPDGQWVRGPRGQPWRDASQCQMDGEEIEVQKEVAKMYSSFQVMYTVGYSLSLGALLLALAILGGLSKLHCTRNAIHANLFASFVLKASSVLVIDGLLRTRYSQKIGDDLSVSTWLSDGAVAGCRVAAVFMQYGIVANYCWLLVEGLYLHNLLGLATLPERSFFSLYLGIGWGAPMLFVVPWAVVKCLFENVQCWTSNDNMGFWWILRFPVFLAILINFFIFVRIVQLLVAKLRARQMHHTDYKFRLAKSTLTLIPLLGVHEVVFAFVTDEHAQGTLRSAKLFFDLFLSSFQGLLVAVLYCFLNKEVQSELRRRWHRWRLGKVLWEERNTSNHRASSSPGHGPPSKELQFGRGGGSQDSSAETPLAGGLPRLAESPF

B2: Peptide 38 (peptide)
peptide: H[Aib]QGTFTSDVSK[αMeF]LDSK([AEEA-AEEA-γGlu-C18 diacid])RAQDFVEWLL[Aib]T-OH
modifications: N-terminus assumed
SMILES: CC(C)C[C@H](NC(=O)[C@H](Cc1c[nH]c2ccccc12)NC(=O)[C@H](CCC(=O)O)NC(=O)[C@@H](NC(=O)[C@H](Cc1ccccc1)NC(=O)[C@H](CC(=O)O)NC(=O)[C@H](CCC(N)=O)NC(=O)[C@H](C)NC(=O)[C@H](CCCNC(=N)N)NC(=O)[C@H](CCCCNC(=O)COCCOCCNC(=O)COCCOCCNC(=O)CC[C@H](NC(=O)CCCCCCCCCCCCCCCCC(=O)O)C(=O)O)NC(=O)[C@H](CO)NC(=O)[C@H](CC(=O)O)NC(=O)[C@H](CC(C)C)NC(=O)[C@](C)(Cc1ccccc1)NC(=O)[C@H](CCCCN)NC(=O)[C@H](CO)NC(=O)[C@@H](NC(=O)[C@H](CC(=O)O)NC(=O)[C@H](CO)NC(=O)[C@@H](NC(=O)[C@H](Cc1ccccc1)NC(=O)[C@@H](NC(=O)CNC(=O)[C@H](CCC(N)=O)NC(=O)C(C)(C)NC(=O)[C@@H](N)Cc1c[nH]cn1)[C@@H](C)O)[C@@H](C)O)C(C)C)C(C)C)C(=O)N[C@@H](CC(C)C)C(=O)NC(C)(C)C(=O)N[C@H](C(=O)O)[C@@H](C)O
- hGLP-1R EC50 (pM) [1]: 75.6 pM
- hGluc-R EC50 (pM) [2]: 441 pM

B3: Peptide 39 (peptide)
peptide: H[Aib]QGTFTSDVSK[αMeF]LDSK([AEEA-AEEA-γGlu-C18 diacid])RAQDFVRWLL[Aib]TE-OH
modifications: N-terminus assumed
SMILES: CC(C)C[C@H](NC(=O)[C@H](Cc1c[nH]c2ccccc12)NC(=O)[C@H](CCCNC(=N)N)NC(=O)[C@@H](NC(=O)[C@H](Cc1ccccc1)NC(=O)[C@H](CC(=O)O)NC(=O)[C@H](CCC(N)=O)NC(=O)[C@H](C)NC(=O)[C@H](CCCNC(=N)N)NC(=O)[C@H](CCCCNC(=O)COCCOCCNC(=O)COCCOCCNC(=O)CC[C@H](NC(=O)CCCCCCCCCCCCCCCCC(=O)O)C(=O)O)NC(=O)[C@H](CO)NC(=O)[C@H](CC(=O)O)NC(=O)[C@H](CC(C)C)NC(=O)[C@](C)(Cc1ccccc1)NC(=O)[C@H](CCCCN)NC(=O)[C@H](CO)NC(=O)[C@@H](NC(=O)[C@H](CC(=O)O)NC(=O)[C@H](CO)NC(=O)[C@@H](NC(=O)[C@H](Cc1ccccc1)NC(=O)[C@@H](NC(=O)CNC(=O)[C@H](CCC(N)=O)NC(=O)C(C)(C)NC(=O)[C@@H](N)Cc1c[nH]cn1)[C@@H](C)O)[C@@H](C)O)C(C)C)C(C)C)C(=O)N[C@@H](CC(C)C)C(=O)NC(C)(C)C(=O)N[C@H](C(=O)N[C@@H](CCC(=O)O)C(=O)O)[C@@H](C)O
- hGLP-1R EC50 (pM) [1]: 76.1 pM
- hGluc-R EC50 (pM) [2]: 194 pM

B5: Peptide 37 (peptide)
peptide: H[Aib]QGTFTSDVSK[αMeF]LDSK([AEEA-AEEA-γGlu-C18 diacid])RAEDFVQWLL[Aib]T-OH
modifications: N-terminus assumed
SMILES: CC(C)C[C@H](NC(=O)[C@H](Cc1c[nH]c2ccccc12)NC(=O)[C@H](CCC(N)=O)NC(=O)[C@@H](NC(=O)[C@H](Cc1ccccc1)NC(=O)[C@H](CC(=O)O)NC(=O)[C@H](CCC(=O)O)NC(=O)[C@H](C)NC(=O)[C@H](CCCNC(=N)N)NC(=O)[C@H](CCCCNC(=O)COCCOCCNC(=O)COCCOCCNC(=O)CC[C@H](NC(=O)CCCCCCCCCCCCCCCCC(=O)O)C(=O)O)NC(=O)[C@H](CO)NC(=O)[C@H](CC(=O)O)NC(=O)[C@H](CC(C)C)NC(=O)[C@](C)(Cc1ccccc1)NC(=O)[C@H](CCCCN)NC(=O)[C@H](CO)NC(=O)[C@@H](NC(=O)[C@H](CC(=O)O)NC(=O)[C@H](CO)NC(=O)[C@@H](NC(=O)[C@H](Cc1ccccc1)NC(=O)[C@@H](NC(=O)CNC(=O)[C@H](CCC(N)=O)NC(=O)C(C)(C)NC(=O)[C@@H](N)Cc1c[nH]cn1)[C@@H](C)O)[C@@H](C)O)C(C)C)C(C)C)C(=O)N[C@@H](CC(C)C)C(=O)NC(C)(C)C(=O)N[C@H](C(=O)O)[C@@H](C)O
- hGLP-1R EC50 (pM) [1]: 68.6 pM
- hGluc-R EC50 (pM) [2]: 2750 pM

Results, then the binder that gave them:

- hGLP-1R EC50 (pM) [1]: 448 pM
- hGluc-R EC50 (pM) [2]: 886 pM
B1: Peptide 168 (peptide)
peptide: H[Aib]QGTFTSDVSK[αMeF]LDSK([AEEA-AEEA-γGlu-C18 diacid])RARDFVAWLL[Aib]TE-OH
modifications: N-terminus assumed
SMILES: CC(C)C[C@H](NC(=O)[C@H](Cc1c[nH]c2ccccc12)NC(=O)[C@H](C)NC(=O)[C@@H](NC(=O)[C@H](Cc1ccccc1)NC(=O)[C@H](CC(=O)O)NC(=O)[C@H](CCCNC(=N)N)NC(=O)[C@H](C)NC(=O)[C@H](CCCNC(=N)N)NC(=O)[C@H](CCCCNC(=O)COCCOCCNC(=O)COCCOCCNC(=O)CC[C@H](NC(=O)CCCCCCCCCCCCCCCCC(=O)O)C(=O)O)NC(=O)[C@H](CO)NC(=O)[C@H](CC(=O)O)NC(=O)[C@H](CC(C)C)NC(=O)[C@](C)(Cc1ccccc1)NC(=O)[C@H](CCCCN)NC(=O)[C@H](CO)NC(=O)[C@@H](NC(=O)[C@H](CC(=O)O)NC(=O)[C@H](CO)NC(=O)[C@@H](NC(=O)[C@H](Cc1ccccc1)NC(=O)[C@@H](NC(=O)CNC(=O)[C@H](CCC(N)=O)NC(=O)C(C)(C)NC(=O)[C@@H](N)Cc1c[nH]cn1)[C@@H](C)O)[C@@H](C)O)C(C)C)C(C)C)C(=O)N[C@@H](CC(C)C)C(=O)NC(C)(C)C(=O)N[C@H](C(=O)N[C@@H](CCC(=O)O)C(=O)O)[C@@H](C)O

- hGLP-1R EC50 (pM) [3]: 22.7 pM
B4: Peptide 140 (peptide)
peptide: H[Aib]QGTFTSDVSK[αMeF]LDTK([AEEA-AEEA-γGlu-C18 diacid])RAQDFVRWLLE[Aib]G-OH
modifications: N-terminus assumed
SMILES: CC(C)C[C@H](NC(=O)[C@H](Cc1c[nH]c2ccccc12)NC(=O)[C@H](CCCNC(=N)N)NC(=O)[C@@H](NC(=O)[C@H](Cc1ccccc1)NC(=O)[C@H](CC(=O)O)NC(=O)[C@H](CCC(N)=O)NC(=O)[C@H](C)NC(=O)[C@H](CCCNC(=N)N)NC(=O)[C@H](CCCCNC(=O)COCCOCCNC(=O)COCCOCCNC(=O)CC[C@H](NC(=O)CCCCCCCCCCCCCCCCC(=O)O)C(=O)O)NC(=O)[C@@H](NC(=O)[C@H](CC(=O)O)NC(=O)[C@H](CC(C)C)NC(=O)[C@](C)(Cc1ccccc1)NC(=O)[C@H](CCCCN)NC(=O)[C@H](CO)NC(=O)[C@@H](NC(=O)[C@H](CC(=O)O)NC(=O)[C@H](CO)NC(=O)[C@@H](NC(=O)[C@H](Cc1ccccc1)NC(=O)[C@@H](NC(=O)CNC(=O)[C@H](CCC(N)=O)NC(=O)C(C)(C)NC(=O)[C@@H](N)Cc1c[nH]cn1)[C@@H](C)O)[C@@H](C)O)C(C)C)[C@@H](C)O)C(C)C)C(=O)N[C@@H](CC(C)C)C(=O)N[C@@H](CCC(=O)O)C(=O)NC(C)(C)C(=O)NCC(=O)O
